Data published in IntAct's records for PubMed 19696784.

B1: Microtubule protein alp7 (Schizosaccharomyces pombe (strain ATCC 38366 / 972)), Q9URY2 (parent)
chain: MSDIVSSSTDYSRRSPSSSSIGTNETDHTGFHEKRQGASSESLIPPAQRSSEESMPAPKLFPKLTSKPNPQLNLKDTLNKRVSDRLQALELNKSFDFSGTPRPMHPISHPLSQHKTPEFKHRKRNVESILTPKNPSLFSSSNAASQRGSLNTAPSNFAYSHSSSLQTSASSRPPVLSNGSFPRQTNTAPLNPPVHLKDNIRNSATPSTSQADIPTQYPINSTQKQQAKYEAEIEGYKAKLAGTYHEISVLQNTIVNVSGQLIAVNDQLQQLRSGKASTSPSTKDTNMRLVEGHNEETLALQRGKYTQEEVDKLIQERMEKVAEDLHAQYSAKHTQKINAFKANYARKYEATIQELQNQIGTAPNAPKISNSNWEEERRALKADNQTLQKQLEKAIQERQDMSDFLNNFKADMAKSDKLLMQQQSQQTGDLETLRLQLQALQEELRVEREERQQLIQMSEDLVIAMDQLNLEQKS
partner: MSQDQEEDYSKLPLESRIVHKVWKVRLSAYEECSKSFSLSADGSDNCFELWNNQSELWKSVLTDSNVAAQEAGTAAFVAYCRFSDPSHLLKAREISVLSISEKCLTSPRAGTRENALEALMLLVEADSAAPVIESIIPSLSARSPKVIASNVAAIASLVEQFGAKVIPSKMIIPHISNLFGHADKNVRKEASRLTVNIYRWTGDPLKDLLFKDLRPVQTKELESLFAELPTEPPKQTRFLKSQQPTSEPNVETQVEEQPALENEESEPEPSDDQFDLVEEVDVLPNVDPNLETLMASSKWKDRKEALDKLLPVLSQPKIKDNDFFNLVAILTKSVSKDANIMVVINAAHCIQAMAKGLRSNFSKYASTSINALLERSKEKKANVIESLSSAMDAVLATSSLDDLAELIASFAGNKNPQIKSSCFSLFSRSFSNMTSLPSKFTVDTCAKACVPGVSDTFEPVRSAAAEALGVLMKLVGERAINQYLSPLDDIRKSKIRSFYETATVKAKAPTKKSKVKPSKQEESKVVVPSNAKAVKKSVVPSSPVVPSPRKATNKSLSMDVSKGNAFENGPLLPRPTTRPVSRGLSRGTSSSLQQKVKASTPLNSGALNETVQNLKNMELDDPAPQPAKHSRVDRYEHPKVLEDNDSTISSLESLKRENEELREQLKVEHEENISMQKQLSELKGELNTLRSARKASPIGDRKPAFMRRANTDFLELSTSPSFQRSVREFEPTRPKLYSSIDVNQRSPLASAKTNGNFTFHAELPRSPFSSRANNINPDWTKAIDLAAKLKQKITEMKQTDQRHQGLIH

Variants of: B1
Details: with alp14_schpo alp14, O94534

Row | effect of a mutation on the interaction | Variant
1 | disrupting interaction | MSDIVSSSTDYSRRSPSSSSIGTNETDHTGFHEKRQGASSESLIPPAQRSSEESMPAPKLFPKLTSKPNPQLNLKDTLNKRVSDRLQALELNKSFDFSGTPRPMHPISHPLSQHKTPEFKHRKRNVESILTPKNPSLFSSSNAASQRGSLNTAPSNFAYSHSSSLQTSASSRPPVLSNGSFPRQTNTAPLNPPVHLKDNIRNSATPSTSQADIPTQYPINSTQKQQAKYEAEIEGYKAKLAGTYHEISVLQNTIVNVSGQLIAVNDQLQQLRSGKASTSPSTKDTNMRLVEGHNEETLALQRGKYTQEEVDKLIQERMEKVAEDLHAQYSAKHTQKINAFKANYARKYEATIQELQNQIGTAPNAPKISNSNWEEERRALKADNQTLQKQLEKAIQERQDMSDFLNNFKADMAKSDKLLMQQQSQQTGDLETLRLQLQALQEELRVEREERQQLIQMSEDAVIAMDQLNLEQKS [L461A]
